Measured values reported in US20130331738A1, “COMPOSITIONS AND METHODS FOR POTENTIATING SONOTHROMBOLYSIS” (Board of Trustees University of Arkansas, priority 2012, published 2013).

Tested on: rigid clots (pooled rabbit plasma, fresh rabbit blood cells, thrombin)
Assay: Sonothrombolysis of aged and rigid clots, 1 MHz pulsed ultrasound in a Mylar flow chamber
Details: 0.1 mg/mL of tPA and/or MBs at about 0.5-2.5×10^8 MB/mL
Protocol: To assess the effect of CPDL and/or degradable starch nanoparticles on the efficacy of sonothrombolysis, the following experiment was conducted. Rigid clots were formed by mixing pooled rabbit plasma with fresh rabbit blood cells and 30 U/mL of thrombin. The clots were incubated at 37° C. in glass tubes for 24 h followed by curing at 5° C. for 24 h. The total clot volumes and mass densities of each main clot were measured, and then 9-11 mg pieces were cut from the main clot. Each clot piece was weighed and then insonated with 1 MHz, pulsed ultrasound in a Mylar flow chamber through which fresh rabbit serum containing tPA and/or microbubbles (MBs) were introduced continuously. Sonothrombolysis efficacy was quantified as the % of clot mass lysed in 15 min. A stable nanoemulsion of CPDL at a concentration ranging from about 0.003-0.06% w/V, and/or 50-200 nm degradable starch nanoparticles were added to the system to enhance sonothrombolysis efficacy.

B1: tPA: tissue plasminogen activator (protein, UniProt P00750 36-562, looked up)
Tissue-type plasminogen …: SYQVICRDEKTQMIYQQHQSWLRPVLRSNRVEYCWCNSGRAQCHSVPVKSCSEPRCFNGGTCQQALYFSDFVCQCPEGFAGKCCEIDTRATCYEDQGISYRGTWSTAESGAECTNWNSSALAQKPYSGRRPDAIRLGLGNHNYCRNPDRDSKPWCYVFKAGKYSSEFCSTPACSEGNSDCYFGNGSAYRGTHSLTESGASCLPWNSMILIGKVYTAQNPSAQALGLGKHNYCRNPDGDAKPWCHVLKNRRLTWEYCDVPSCSTCGLRQYSQPQFRIKGGLFADIASHPWQAAIFAKHRRSPGERFLCGGILISSCWILSAAHCFQERFPPHHLTVILGRTYRVVPGEEEQKFEVEKYIVHKEFDDDTYDNDIALLQLKSDSSRCAQESSVVRTVCLPPADLQLPDWTECELSGYGKHEALSPFYSERLKEAHVRLYPSSRCTSQHLLNRTVTDNMLCAGDTRSGGPQANLHDACQGDSGGPLVCLNDGRMTLVGIISWGLGCGQKDVPGVYTKVTNYLDWIRDNMRP
- efficacy of sonothrombolysis for more rigid and aged clots: reduced markedly
